The test addresses purified folded MHC-complex (Example 29). Nature of the test: sandwich ELISA, W6/32 coat, HRP rabbit anti-β2m detection.

Where only a bound is given, the exact number is not on record here.

As to “W6/32 mouse-anti-HLA-ABC antibody (Dako M0736)”, the OD450 against the negative control β2m (fold) is greater than 6 fold.

(Values after patent publication US10030065.)
